Assay results published in patent US20110166062A1 (INDIANA UNIVERSITY RESEARCH AND TECHNOLOGY, published 2011).
Primed or numbered codes have the meaning given here. Where no end group is shown, it is not given here. [ ]: non-standard residue; d: D form. The star is where a group is joined. PEG 40 kDa″ = polyethylene glycol of 40 kDa covalently attached to the side chain; Met(O) = CS(=O)CC[C@H](N)C(=O)O; Nle = CCCC[C@H](N)C(=O)O; Orn = NCCC[C@H](N)C(=O)O; Dab = NCC[C@H](N)C(=O)O; Dap = NC[C@H](N)C(=O)O; Aib = CC(C)(N)C(=O)O; Carbamoyl = NC(=O)*; Acm = CC(=O)NC*

T1: GIP receptor (UniProt P48546 22-466)
T1 sequence (looked up): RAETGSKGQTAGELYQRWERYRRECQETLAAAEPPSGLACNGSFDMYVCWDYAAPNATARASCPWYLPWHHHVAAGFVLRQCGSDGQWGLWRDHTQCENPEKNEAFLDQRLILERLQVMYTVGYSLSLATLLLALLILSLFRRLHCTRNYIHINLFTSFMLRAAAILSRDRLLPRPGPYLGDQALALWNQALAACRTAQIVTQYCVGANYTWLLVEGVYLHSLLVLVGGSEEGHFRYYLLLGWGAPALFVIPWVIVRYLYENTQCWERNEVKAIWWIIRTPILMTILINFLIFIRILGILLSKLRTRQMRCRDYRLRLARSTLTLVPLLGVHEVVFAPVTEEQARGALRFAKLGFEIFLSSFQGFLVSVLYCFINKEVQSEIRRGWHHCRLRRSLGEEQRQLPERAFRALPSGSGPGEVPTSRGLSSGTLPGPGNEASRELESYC


Key:
Assay in all cases: cell-based or functional assay
glucagon receptor [1] = molecular target: glucagon receptor (UniProt P47871 26-477, limits assumed)
Target sequence in this assay (P47871 26-477 limits assumed): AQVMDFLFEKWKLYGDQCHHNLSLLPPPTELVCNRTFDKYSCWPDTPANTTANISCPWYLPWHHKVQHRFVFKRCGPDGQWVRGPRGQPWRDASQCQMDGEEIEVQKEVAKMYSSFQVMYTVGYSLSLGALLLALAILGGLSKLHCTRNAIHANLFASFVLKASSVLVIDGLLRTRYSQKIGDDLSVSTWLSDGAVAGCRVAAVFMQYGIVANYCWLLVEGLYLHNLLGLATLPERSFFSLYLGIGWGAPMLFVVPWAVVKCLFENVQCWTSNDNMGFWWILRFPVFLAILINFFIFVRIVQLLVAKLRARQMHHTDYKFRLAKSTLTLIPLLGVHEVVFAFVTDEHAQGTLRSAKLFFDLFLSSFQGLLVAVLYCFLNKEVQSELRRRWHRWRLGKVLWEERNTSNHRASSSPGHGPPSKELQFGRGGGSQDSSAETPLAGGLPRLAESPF

GLP-1 receptor = GLP-1 receptor (UniProt P43220 24-463, limits assumed)
GIP receptor = molecular target: T1, GIP receptor
glucagon receptor [2] = molecular target: glucagon receptor (UniProt P47871 26-477, limits assumed); remark: listed apart in the source
Target sequence in this assay (P47871 26-477 limits assumed): as above

Row | Binder | EC50 (glucagon receptor [1]) [nM] | relative activity (glucagon receptor [1]) [%] | EC50 (GLP-1 receptor) [nM] | relative activity (GLP-1 receptor) [%] | EC50 (GIP receptor) [nM] | relative activity (GIP receptor) [%] | % activity* (glucagon receptor [2]) [%] | EC50 at Glucagon Receptor (glucagon receptor [2]) [nM]
1 | Y[Aib]QGTFTSDYSIYLDSQAA[Aib]EFVCWLLAG-NH2 (N-terminus assumed; SMILES CC[C@H](C)[C@H](NC(=O)[C@H](CO)NC(=O)[C@H](Cc1ccc(O)cc1)NC(=O)[C@H](CC(=O)O)NC(=O)[C@H](CO)NC(=O)[C@@H](NC(=O)[C@H](Cc1ccccc1)NC(=O)[C@@H](NC(=O)CNC(=O)[C@H](CCC(N)=O)NC(=O)C(C)(C)NC(=O)[C@@H](N)Cc1ccc(O)cc1)[C@@H](C)O)[C@@H](C)O)C(=O)N[C@@H](Cc1ccc(O)cc1)C(=O)N[C@@H](CC(C)C)C(=O)N[C@@H](CC(=O)O)C(=O)N[C@@H](CO)C(=O)N[C@@H](CCC(N)=O)C(=O)N[C@@H](C)C(=O)N[C@@H](C)C(=O)NC(C)(C)C(=O)N[C@@H](CCC(=O)O)C(=O)N[C@@H](Cc1ccccc1)C(=O)N[C@H](C(=O)N[C@@H](CS)C(=O)N[C@@H](Cc1c[nH]c2ccccc12)C(=O)N[C@@H](CC(C)C)C(=O)N[C@@H](CC(C)C)C(=O)N[C@@H](C)C(=O)NCC(N)=O)C(C)C) [mt-259] | 0.297 | 23.1 | 0.0189 | 63 | 0.0799 | 12 | – | –
2 | Y[Aib]QGTFTSDYSIYLDKQAA[Aib]EFVNWLLAGGPSSGAPPPSC(PEG 40 kDa″)-NH2 [mt-255] | 5.46 | 2.45 | 0.018 | 117 | 0.013 | 146 | – | –
3 | Y[Aib]QGTFTSDYSIYLDKQAA[Aib]EFVNWLLAGGPSSGAPPPSC-NH2 (N-terminus assumed; SMILES CC[C@H](C)[C@H](NC(=O)[C@H](CO)NC(=O)[C@H](Cc1ccc(O)cc1)NC(=O)[C@H](CC(=O)O)NC(=O)[C@H](CO)NC(=O)[C@@H](NC(=O)[C@H](Cc1ccccc1)NC(=O)[C@@H](NC(=O)CNC(=O)[C@H](CCC(N)=O)NC(=O)C(C)(C)NC(=O)[C@@H](N)Cc1ccc(O)cc1)[C@@H](C)O)[C@@H](C)O)C(=O)N[C@@H](Cc1ccc(O)cc1)C(=O)N[C@@H](CC(C)C)C(=O)N[C@@H](CC(=O)O)C(=O)N[C@@H](CCCCN)C(=O)N[C@@H](CCC(N)=O)C(=O)N[C@@H](C)C(=O)N[C@@H](C)C(=O)NC(C)(C)C(=O)N[C@@H](CCC(=O)O)C(=O)N[C@@H](Cc1ccccc1)C(=O)N[C@H](C(=O)N[C@@H](CC(N)=O)C(=O)N[C@@H](Cc1c[nH]c2ccccc12)C(=O)N[C@@H](CC(C)C)C(=O)N[C@@H](CC(C)C)C(=O)N[C@@H](C)C(=O)NCC(=O)NCC(=O)N1CCC[C@H]1C(=O)N[C@@H](CO)C(=O)N[C@@H](CO)C(=O)NCC(=O)N[C@@H](C)C(=O)N1CCC[C@H]1C(=O)N1CCC[C@H]1C(=O)N1CCC[C@H]1C(=O)N[C@@H](CO)C(=O)N[C@@H](CS)C(N)=O)C(C)C) [mt-252] | 0.319 | 13.2 | 0.018 | 117 | 0.013 | 146 | – | –
4 | HS[Met(O)]GTFTSDYSKYLDTRRAAEFVAWL[Nle]DE [Peptide J backbone with M(O) at position 3] | – | – | – | – | – | – | 7 | 0.91
5 | HSC(Acm)GTFTSDYSKYLDTRRAAEFVAWL[Nle]DE [Peptide J backbone with C(Acm) at position 3] | – | – | – | – | – | – | 33 | –
6 | HS[Orn](Ac)GTFTSDYSKYLDTRRAAEFVAWL[Nle]DE [Peptide J backbone with Orn(Ac) at position 3] | – | – | – | – | – | – | 7 | 0.92
7 | HS[Dab](Ac)GTFTSDYSKYLDTRRAAEFVAWL[Nle]DE [Peptide J backbone with Dab(Ac) at position 3] | – | – | – | – | – | – | 19 | 0.31
8 | HS[Dab](Ac)GTFTSDYSKYLD[Aib]RRAADFVAWLMDE [Peptide K backbone with Dab(Ac) at position 3] | – | – | – | – | – | – | 86 | 0.07
9 | HS[Dap](Carbamoyl)GTFTSDYSKYLDTRRAAEFVAWL[Nle]DE [Peptide J backbone with Dap(urea) at position 3] | – | – | – | – | – | – | 13 | 0.48
10 | Y[Aib]QGTFTSDYSIYLDEQAA[Aib]EFVNWLLAGGPSSGAPPPSC-NH2 (N-terminus assumed; SMILES CC[C@H](C)[C@H](NC(=O)[C@H](CO)NC(=O)[C@H](Cc1ccc(O)cc1)NC(=O)[C@H](CC(=O)O)NC(=O)[C@H](CO)NC(=O)[C@@H](NC(=O)[C@H](Cc1ccccc1)NC(=O)[C@@H](NC(=O)CNC(=O)[C@H](CCC(N)=O)NC(=O)C(C)(C)NC(=O)[C@@H](N)Cc1ccc(O)cc1)[C@@H](C)O)[C@@H](C)O)C(=O)N[C@@H](Cc1ccc(O)cc1)C(=O)N[C@@H](CC(C)C)C(=O)N[C@@H](CC(=O)O)C(=O)N[C@@H](CCC(=O)O)C(=O)N[C@@H](CCC(N)=O)C(=O)N[C@@H](C)C(=O)N[C@@H](C)C(=O)NC(C)(C)C(=O)N[C@@H](CCC(=O)O)C(=O)N[C@@H](Cc1ccccc1)C(=O)N[C@H](C(=O)N[C@@H](CC(N)=O)C(=O)N[C@@H](Cc1c[nH]c2ccccc12)C(=O)N[C@@H](CC(C)C)C(=O)N[C@@H](CC(C)C)C(=O)N[C@@H](C)C(=O)NCC(=O)NCC(=O)N1CCC[C@H]1C(=O)N[C@@H](CO)C(=O)N[C@@H](CO)C(=O)NCC(=O)N[C@@H](C)C(=O)N1CCC[C@H]1C(=O)N1CCC[C@H]1C(=O)N1CCC[C@H]1C(=O)N[C@@H](CO)C(=O)N[C@@H](CS)C(N)=O)C(C)C) [mt-251] | 2.76 | 1.52 | 0.015 | 140 | 0.033 | 57.6 | – | –
11 | Y[Aib]QGTFTSDYSIYLDEQAA[Aib]EFVCWLLAG-NH2 (N-terminus assumed; SMILES CC[C@H](C)[C@H](NC(=O)[C@H](CO)NC(=O)[C@H](Cc1ccc(O)cc1)NC(=O)[C@H](CC(=O)O)NC(=O)[C@H](CO)NC(=O)[C@@H](NC(=O)[C@H](Cc1ccccc1)NC(=O)[C@@H](NC(=O)CNC(=O)[C@H](CCC(N)=O)NC(=O)C(C)(C)NC(=O)[C@@H](N)Cc1ccc(O)cc1)[C@@H](C)O)[C@@H](C)O)C(=O)N[C@@H](Cc1ccc(O)cc1)C(=O)N[C@@H](CC(C)C)C(=O)N[C@@H](CC(=O)O)C(=O)N[C@@H](CCC(=O)O)C(=O)N[C@@H](CCC(N)=O)C(=O)N[C@@H](C)C(=O)N[C@@H](C)C(=O)NC(C)(C)C(=O)N[C@@H](CCC(=O)O)C(=O)N[C@@H](Cc1ccccc1)C(=O)N[C@H](C(=O)N[C@@H](CS)C(=O)N[C@@H](Cc1c[nH]c2ccccc12)C(=O)N[C@@H](CC(C)C)C(=O)N[C@@H](CC(C)C)C(=O)N[C@@H](C)C(=O)NCC(N)=O)C(C)C) [mt-258] | 0.487 | 14.1 | 0.0202 | 58.9 | 0.057 | 16.8 | – | –
12 | HSQGTFTSDYSKYLDTRRAAEFVAWL[Nle]DE [Peptide J backbone with Q at position 3] | – | – | – | – | – | – | 25 | –
13 | Y[Aib]QGTFTSDYSIYLD[Aib]QAA[Aib]EFVNWLLAGGPSSGAPPPSC-NH2 (N-terminus assumed; SMILES CC[C@H](C)[C@H](NC(=O)[C@H](CO)NC(=O)[C@H](Cc1ccc(O)cc1)NC(=O)[C@H](CC(=O)O)NC(=O)[C@H](CO)NC(=O)[C@@H](NC(=O)[C@H](Cc1ccccc1)NC(=O)[C@@H](NC(=O)CNC(=O)[C@H](CCC(N)=O)NC(=O)C(C)(C)NC(=O)[C@@H](N)Cc1ccc(O)cc1)[C@@H](C)O)[C@@H](C)O)C(=O)N[C@@H](Cc1ccc(O)cc1)C(=O)N[C@@H](CC(C)C)C(=O)N[C@@H](CC(=O)O)C(=O)NC(C)(C)C(=O)N[C@@H](CCC(N)=O)C(=O)N[C@@H](C)C(=O)N[C@@H](C)C(=O)NC(C)(C)C(=O)N[C@@H](CCC(=O)O)C(=O)N[C@@H](Cc1ccccc1)C(=O)N[C@H](C(=O)N[C@@H](CC(N)=O)C(=O)N[C@@H](Cc1c[nH]c2ccccc12)C(=O)N[C@@H](CC(C)C)C(=O)N[C@@H](CC(C)C)C(=O)N[C@@H](C)C(=O)NCC(=O)NCC(=O)N1CCC[C@H]1C(=O)N[C@@H](CO)C(=O)N[C@@H](CO)C(=O)NCC(=O)N[C@@H](C)C(=O)N1CCC[C@H]1C(=O)N1CCC[C@H]1C(=O)N1CCC[C@H]1C(=O)N[C@@H](CO)C(=O)N[C@@H](CS)C(N)=O)C(C)C) [mt-250] | 0.667 | 6.3 | 0.033 | 63.6 | 0.062 | 30.6 | – | –
14 | HSQGTFTSDYSKYLD[Aib]RRAADFVAWLMDE [Peptide K backbone with Q at position 3] | – | – | – | – | – | – | 15 | –
15 | Y[Aib]QGTFTSDYSIYLD[Aib]QAAKEFVNWLLAGGPSSGAPPPSC(PEG 40 kDa″)-NH2 [mt-248] | 16.7 | 0.37 | 0.103 | 9.71 | 3.23 | 0.53 | – | –
